This passage reports Kd results from the Immune Epitope Database (IEDB).

For assay [1], the target named is HLA-A*68:02. The assay is described as follows: IEDB peptide-MHC binding, purified MHC/competitive/radioactivity; filed as Kd, often an IC50 or EC50 that approximates it; ≥ and ≤ were set here for values at or beyond the usual limits of such assays. The settings on record: source organism: Dengue virus 1 Brazil/97-11/1997.
The target in assay [2] is HLA-B*57:01. Described as above.
In assay [3] the target is HLA-B*15:01. The description is as above. The settings on record: source organism: Dengue virus 2 Jamaica/1409/1983.
The target in assay [4] is HLA-A*29:02. In words: IEDB peptide-MHC binding, purified MHC/competitive/fluorescence; filed as Kd, often an IC50 or EC50 that approximates it; ≥ and ≤ were set here for values at or beyond the usual limits of such assays. The settings on record: source organism: Cryptosporidium parvum Iowa II.
Assay [5] concerns the target HLA-B*18:01. The assay is described as above. The following applies: source organism: Cryptosporidium parvum Iowa II.
Assay [6] concerns the target HLA-B*27:03. Described as above. The settings on record: source organism: Cryptosporidium parvum Iowa II.
Assay [7] addresses HLA-B*51:01. The assay is described as above. The following applies: source organism: Cryptosporidium parvum Iowa II.
In assay [8] the target is HLA-A*02:12. Described as above. The settings on record: source organism: Cryptosporidium parvum Iowa II.
Assay [9] deals with HLA-A*02:19. Described as above. The following applies: source organism: Cryptosporidium parvum Iowa II.
In assay [10] the target is HLA-A*03:01. Described as above. The settings on record: source organism: Cryptosporidium parvum Iowa II.
Assay [11] addresses HLA-B*46:01. The description is as above. The following applies: source organism: Cryptosporidium parvum Iowa II.
The target of assay [12] is HLA-A*26:01. The description is as above. The settings on record: source organism: Cryptosporidium parvum Iowa II.
Assay [13] addresses HLA-B*39:01. Described as above. The following applies: source organism: Cryptosporidium parvum Iowa II.
Assay [14] deals with HLA-A*02:03. In words: IEDB peptide-MHC binding, purified MHC/direct/fluorescence; filed as Kd, often an IC50 or EC50 that approximates it; ≥ and ≤ were set here for values at or beyond the usual limits of such assays.
The target in assay [15] is HLA-B*15:01. Described as above.
Assay [16] deals with HLA-B*27:03. The description is as above.
In assay [17] the target is HLA-B*07:02. Described as above.
The target in assay [18] is HLA-B*51:01. Described as above.
For assay [19], the target named is HLA-B*35:01. The assay is described as above.
For assay [20], the target named is HLA-A*02:12. Described as above.
Assay [21] has as its target HLA-A*24:03. Described as above.
Assay [22] has as its target HLA-A*02:19. The description is as above.
In assay [23] the target is HLA-B*57:01. The assay is described as above.
Assay [24] addresses HLA-A*02:16. The description is as above.
In assay [25] the target is HLA-A*03:01. The description is as above.
Assay [26] concerns the target HLA-B*46:01. The assay is described as above.
Assay [27] has as its target HLA-A*02:01. The assay is described as above.
Assay [28] has as its target HLA-A*26:01. Described as above.
Assay [29] addresses HLA-B*39:01. Described as above.
In assay [30] the target is HLA-B*18:01. The description is as above.
The target in assay [31] is HLA-A*02:11. Described as above.
The target in assay [32] is HLA-A*01:01. In words: IEDB peptide-MHC binding, purified MHC/competitive/fluorescence; filed as Kd, often an IC50 or EC50 that approximates it; ≥ and ≤ were set here for values at or beyond the usual limits of such assays. The following applies: source organism: Influenza A virus (A/swine/Finistere/127/99(H3N2)).
Assay [33] concerns the target HLA-A*69:01. In words: IEDB peptide-MHC binding, purified MHC/direct/fluorescence; filed as Kd, often an IC50 or EC50 that approximates it; ≥ and ≤ were set here for values at or beyond the usual limits of such assays.
Assay [34] addresses HLA-A*68:02. The description is as above.
The target of assay [35] is HLA-A*29:02. Described as above. The following applies: source organism: Burkholderia mallei ATCC 23344.
The target of assay [36] is HLA-B*15:17. Described as above. The settings on record: source organism: Burkholderia mallei ATCC 23344.
[37] abbreviates: source organism: Dengue virus 2 Jamaica/1409/1983.
Setting [38] is: source organism: Mycobacterium tuberculosis str. Haarlem.
[39] abbreviates: source organism: Cryptosporidium parvum Iowa II.
[40] abbreviates: source organism: Burkholderia mallei.
[41] abbreviates: source organism: Vibrio parahaemolyticus AQ3810.
Setting [42] is: source organism: Burkholderia mallei ATCC 23344.

Turning to QTSGTTTIFA, the dissociation constant (Kd) (usually the free concentration of one partner at which half of the binding sites on the other are occupied at equilibrium, for simple one-to-one binding) in assay [1] turned out to be 0.00212 µM; in assay [2] (source organism: Dengue virus 1 Brazil/97-11/1997) it was 0.454 µM.
As to ISRMLINRF, the dissociation constant (Kd) in assay [3] was 0.178 µM; in [2] (setting [37]), 0.0159 µM.
As for KIVPLPPMY, the Kd in assay [4] is 0.277 µM; in [5], at least 20 µM; in [6], at least 20 µM; in assay [7], at least 20 µM; in [8], at least 20 µM; in [9], at least 20 µM. Besides, the Kd is 0.796 µM in [10], at least 20 µM in assay [11], at least 20 µM in [12] and at least 20 µM in assay [13].
Consider EILWDVIPF, for which the Kd in assay [14] (setting [38]) is at least 20 µM; in assay [15] (setting [38]), 0.191 µM; in assay [16] (setting [38]), at least 20 µM; in assay [17] (setting [38]) it was 6.5 µM; in assay [18] (setting [38]), at least 20 µM; in assay [19] (setting [38]) it was 0.003 µM. In addition, the Kd in [20] (setting [38]), in assay [21] (setting [38]), in assay [22] (setting [38]), in assay [23] (setting [38]), in assay [24] (setting [38]) and in assay [25] (setting [38]) was at least 20 µM each time. In addition, the Kd in assay [26] (setting [38]), in [27] (setting [38]), in assay [28] (setting [38]) and in [29] (setting [38]) was at least 20 µM in each case.
For LPLESCFGV, the Kd in [14] (setting [39]) is at least 20 µM; in assay [30] (setting [39]), at least 20 µM; in [15] (setting [39]), at least 20 µM; in [16] (setting [39]), at least 20 µM; in assay [31] (setting [39]), at least 20 µM; in [18] (setting [39]), 0.355 µM. Further, the Kd in [20] (setting [39]), in assay [21] (setting [39]), in [22] (setting [39]), in assay [23] (setting [39]), in [25] (setting [39]) and in assay [26] (setting [39]) was at least 20 µM throughout. This sequence displayed a Kd in assay [28] (setting [39]) of at least 20 µM.
On to LASIDLKY, for which the Kd in assay [32] was found to be 3.46 µM.
In the case of RVVRPWGSY, the Kd in [14] (setting [40]), in assay [30] (setting [40]), in [16] (setting [40]), in assay [33] (setting [40]), in [31] (setting [40]) and in assay [18] (setting [40]) was at least 20 µM throughout. The Kd in assay [20] (setting [40]), in assay [21] (setting [40]), in assay [22] (setting [40]), in assay [34] (setting [40]), in [24] (setting [40]) and in [26] (setting [40]) was at least 20 µM throughout. Besides, the dissociation constant (Kd) in assay [27] (setting [40]), in [28] (setting [40]) and in [29] (setting [40]) was at least 20 µM throughout.
Turning to LTSRENLLLG, in [2] (source organism: Dengue virus 3 Martinique/1243/1999), the Kd came to 0.541 µM.
Take ISQGAGWSL: in assay [2] (setting [37]), the Kd was found to be 0.472 µM.
With EASTWLDIF, the Kd in assay [14] (setting [41]) was at least 20 µM; in [30] (setting [41]), at least 20 µM; in assay [15] (setting [41]), 0.174 µM; in [16] (setting [41]), at least 20 µM; in assay [33] (setting [41]), at least 20 µM; in [31] (setting [41]) it was at least 20 µM. Moreover, the Kd in assay [17] (setting [41]) is at least 20 µM; in [18] (setting [41]) it was at least 20 µM; in [19] (setting [41]), 0.016 µM; in assay [20] (setting [41]), at least 20 µM; in [21] (setting [41]) it was at least 20 µM; in assay [22] (setting [41]), at least 20 µM. Further, the Kd in assay [23] (setting [41]), in assay [24] (setting [41]), in [25] (setting [41]), in assay [26] (setting [41]), in assay [27] (setting [41]) and in assay [28] (setting [41]) was at least 20 µM throughout. Moreover, the Kd in assay [29] (setting [41]) was at least 20 µM.
Consider QHAWPLPPL, for which the Kd in [14] (setting [42]), in [35], in assay [30] (setting [42]), in assay [15] (setting [42]), in [16] (setting [42]) and in assay [18] (setting [42]) was at least 20 µM each time. The dissociation constant (Kd) in assay [20] (setting [42]), in [22] (setting [42]), in assay [34] (setting [42]), in assay [23] (setting [42]), in assay [24] (setting [42]) and in [25] (setting [42]) was at least 20 µM in each case. Moreover, the Kd in assay [26] (setting [42]), in [27] (setting [42]), in assay [28] (setting [42]) and in assay [36] was at least 20 µM each time.
